We go through five molecules from patent US20250136709A1 (DEVELOPMENT CENTER FOR BIOTECHNOLOGY, published 2025).

Like-named read-outs stand apart in the source and are kept apart here. Bounds are passed on as bounds.

Assay [1] deals with T1, mouse CD73 (mouse, UniProt Q61503 29-551, limits assumed).
T1 construct: Expressed in F293 cells and used in ELISA
T1 sequence (looked up): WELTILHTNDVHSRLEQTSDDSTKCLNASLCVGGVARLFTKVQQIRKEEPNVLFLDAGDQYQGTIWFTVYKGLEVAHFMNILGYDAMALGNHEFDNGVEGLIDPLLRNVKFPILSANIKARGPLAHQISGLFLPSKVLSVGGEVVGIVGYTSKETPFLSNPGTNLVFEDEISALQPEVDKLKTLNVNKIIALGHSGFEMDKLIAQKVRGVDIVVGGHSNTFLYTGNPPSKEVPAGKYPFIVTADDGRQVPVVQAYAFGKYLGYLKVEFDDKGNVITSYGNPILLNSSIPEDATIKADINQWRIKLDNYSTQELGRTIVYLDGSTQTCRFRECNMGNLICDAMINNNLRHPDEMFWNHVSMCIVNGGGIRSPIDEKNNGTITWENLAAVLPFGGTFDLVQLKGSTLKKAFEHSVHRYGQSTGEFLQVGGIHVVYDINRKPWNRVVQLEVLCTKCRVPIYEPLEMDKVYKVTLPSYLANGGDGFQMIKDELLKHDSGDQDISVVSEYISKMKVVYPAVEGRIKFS
In words: ELISA, antibody titrated; left panel mCD73. From the text:
The binding affinities of the above four mutated antibodies, 10H5 antibody, Oleclumab, and IgG to mouse CD73 and mouse CD73 hF1 were respectively analyzed by using ELISA assay.

Assay [2] concerns the target T2, human CD73 (human, UniProt P21589 27-549).
T2 construct: the antigen of the Biacore assay is only called human CD73 antigen; also called human CD73 antigen; Recombinant Human CD73-6xHis
T2 sequence: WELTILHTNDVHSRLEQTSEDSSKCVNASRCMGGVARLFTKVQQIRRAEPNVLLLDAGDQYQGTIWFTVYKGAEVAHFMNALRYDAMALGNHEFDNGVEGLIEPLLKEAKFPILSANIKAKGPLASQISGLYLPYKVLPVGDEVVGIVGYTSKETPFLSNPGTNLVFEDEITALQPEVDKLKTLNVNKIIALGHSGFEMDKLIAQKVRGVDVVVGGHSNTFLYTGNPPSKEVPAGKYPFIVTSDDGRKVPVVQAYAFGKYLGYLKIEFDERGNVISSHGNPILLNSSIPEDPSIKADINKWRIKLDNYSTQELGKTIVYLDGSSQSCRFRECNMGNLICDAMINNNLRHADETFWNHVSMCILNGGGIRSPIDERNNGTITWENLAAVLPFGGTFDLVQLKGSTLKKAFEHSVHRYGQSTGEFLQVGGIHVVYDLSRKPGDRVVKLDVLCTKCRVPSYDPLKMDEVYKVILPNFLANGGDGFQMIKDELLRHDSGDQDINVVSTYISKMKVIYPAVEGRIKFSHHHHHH
Briefly: Biacore SPR.

Assay [3] concerns the target T3, human CD73 on cells (MDA-MB-231, Calu-1, KLM-1, human CD4+ T-cells) (human, UniProt P21589 27-549).
T3 sequence: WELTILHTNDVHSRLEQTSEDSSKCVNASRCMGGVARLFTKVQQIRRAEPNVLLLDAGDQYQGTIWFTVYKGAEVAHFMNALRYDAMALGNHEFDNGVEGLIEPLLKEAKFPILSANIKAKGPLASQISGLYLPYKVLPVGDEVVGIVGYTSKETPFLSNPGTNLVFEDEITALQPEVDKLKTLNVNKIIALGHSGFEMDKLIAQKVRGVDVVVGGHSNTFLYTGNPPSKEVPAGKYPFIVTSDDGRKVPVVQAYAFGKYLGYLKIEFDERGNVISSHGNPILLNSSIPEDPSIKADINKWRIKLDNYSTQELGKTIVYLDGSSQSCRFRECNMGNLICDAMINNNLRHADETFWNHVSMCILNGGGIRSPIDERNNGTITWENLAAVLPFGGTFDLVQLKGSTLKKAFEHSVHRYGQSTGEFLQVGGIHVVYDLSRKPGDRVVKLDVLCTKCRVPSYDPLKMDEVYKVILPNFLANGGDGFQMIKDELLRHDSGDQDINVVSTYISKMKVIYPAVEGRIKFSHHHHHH
Briefly: cell-based or functional assay.

The target of assay [4] is T2, human CD73. In words: Biacore SPR. This is another data set of the same source.
The target of assay [5] is T2, human CD73. Briefly: Biacore SPR. The source holds these as a separate data set.
Assay [6] has as its target T2, human CD73. Briefly: Biacore SPR. This is another data set of the same source.
The target in assay [7] is human CD73 on cells (MDA-MB-231, Calu-1, KLM-1, human CD4+ T-cells) (human) (UniProt P21589). Briefly: cell-based or functional assay.
Assay [8] deals with T1, mouse CD73. Briefly: ELISA, antibody titrated; panel mCD73.
The target of assay [9] is T4, mCD73hF4 (human; mouse, UniProt Q61503 307-551, limits assumed).
T4 construct: Mouse-human domain swapping protein, expressed in F293 cells
T4 sequence: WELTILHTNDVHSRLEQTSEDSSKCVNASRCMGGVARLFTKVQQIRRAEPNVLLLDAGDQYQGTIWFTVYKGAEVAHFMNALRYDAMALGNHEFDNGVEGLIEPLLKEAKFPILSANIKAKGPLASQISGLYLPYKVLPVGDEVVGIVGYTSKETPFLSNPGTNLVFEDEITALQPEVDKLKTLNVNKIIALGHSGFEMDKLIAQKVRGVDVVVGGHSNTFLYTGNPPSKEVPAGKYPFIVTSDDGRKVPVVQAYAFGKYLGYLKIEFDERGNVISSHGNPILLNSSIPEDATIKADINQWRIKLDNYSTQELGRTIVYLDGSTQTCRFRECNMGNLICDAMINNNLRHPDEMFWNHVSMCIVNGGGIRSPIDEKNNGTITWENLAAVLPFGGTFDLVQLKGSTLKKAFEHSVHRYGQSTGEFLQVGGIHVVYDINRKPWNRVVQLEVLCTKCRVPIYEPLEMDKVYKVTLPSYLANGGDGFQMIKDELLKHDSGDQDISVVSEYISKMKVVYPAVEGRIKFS
Briefly: ELISA, antibody titrated; panel mCD73 hF4.

B1: 10H5-CDRH1W33A (antibody, V domains shown)
VH: QVKLQQSGAELVKPGASVKISCKASGYVFSSYAINWVKQRPGKGLEWIGQIYPGDGNTNYNRNFKGKATLTADKSSSTAYMQLSSLTSEDSAVYFCAGFADWGQGTTVTVSS
VL: DIELTQSPSSLSASLGERVSLTCRASQDIGDSLIWLQQEPDGTIKRLIYATSSLDSGVPKRFSGSRSGTSYSLTISSVEAEDAATYYCQQYSGYPLTFGSGTKLEIK
notes: Alanine mutant of 10H5
Consider B1, for which the binding result in [1] is “no binding (tested: about 5e-8 M)”.

B2: HuB10/HdB7 (antibody, V domains shown)
VH: QVQLVQSGAEVKKPGASVKVSCKASGYVFSSYWINWVRQAPGQGLEWMGQIYPGDGNTNYNRNFKGRVTLTADKSTSTAYMELSSLRSEDTAVYYCAGFADWGQGTLVTVSS
VL: DIQLTQSPSSLSASVGDRVTITCRASQDIGDSLIWLQQKPGKAPKRLIYATSSLDSGVPSRFSGSRSGTDYTLTISSLQPEDFATYYCQQYSGYPLTFGQGTKVEIK
notes: Humanized 10H5; also called HuVHB10/HdVLB7; humanized 10H5 derivative
B2: in assay [2], the Kd was found to be 678 pM. In addition, in assay [3], the “AMP concentration in supernatant by LC/MS, MDA-MB-231 cells, 400 µM AMP, 10 nM antibody, 6 hours” value (from here on “AMP concentration in supernatant … 6 hours”) turned out to be 331 µM; the “AMP concentration in supernatant by LC/MS, MDA-MB-231 cells, 400 µM AMP, 10 nM antibody, 24 hours” value (shortened to “AMP concentration in supernatant … 24 hours”) turned out to be 287 µM; the “AMP consumption, Calu-1 cells, 10 nM antibody, 24 hrs” value (“AMP consumption, Calu-1 cells” for short) was under 20%; the “AMP consumption, MDA-MB-231 cells, 10 nM antibody, 6 hr” value (from here on “AMP consumption … 6 hr”) is under 10%. In assay [3], the “AMP consumption, MDA-MB-231 cells, 10 nM antibody, 24 h” value was under 50% and the “CFSE left-shift level of CD3/CD28-activated CD4+ T-cells with 400 µM AMP, 10 nM antibody” value was found to be 83.4%. In assay [4], this molecule gave a koff of 6.54e-05 s⁻¹ and a kon of 96400 M⁻¹ s⁻¹.

B3: HuB10/HdB6 (antibody, V domains shown)
VH: QVQLVQSGAEVKKPGASVKVSCKASGYVFSSYWINWVRQAPGQGLEWMGQIYPGDGNTNYNRNFKGRVTLTADKSTSTAYMELSSLRSEDTAVYYCAGFADWGQGTLVTVSS
VL: DIQLTQSPSSLSASVGDRVTITCRASQDIGDSLIWLQQKPGKAIKRLIYATSSLDSGVPSRFSGSRSGTDYTLTISSVQPEDFATYYCQQYSGYPLTFGQGTKVEIK
notes: Humanized 10H5; also called HuVHB10/HdVLB6; humanized 10H5 derivative
Take B3: in assay [2], the Kd is 803 pM. For the same molecule, in [3], the “AMP concentration in supernatant … 6 hours” value came out at 336 µM; the “AMP concentration in supernatant … 24 hours” value was found to be 286 µM; the “AMP consumption, Calu-1 cells” value was under 20%; the “AMP consumption … 6 hr” value is under 10%. Further, in assay [3], the “AMP consumption, MDA-MB-231 cells, 10 nM antibody, 24 h” value is under 50% and the “CFSE left-shift level of CD3/CD28-activated CD4+ T-cells with 400 µM AMP, 10 nM antibody” value came to 83.7%. In assay [5], this molecule gave a koff of 6.57e-05 s⁻¹ and a kon of 81800 M⁻¹ s⁻¹.

B4: HuB9/HdB7 (antibody, V domains shown)
VH: QVQLVQSGAEVKKPGASVKVSCKASGYVFSSYWINWVRQAPGQGLEWMGQIYPGDGNTNYNRNFKGRATLTADKSTSTAYMELSSLRSEDTAVYFCAGFADWGQGTLVTVSS
VL: DIQLTQSPSSLSASVGDRVTITCRASQDIGDSLIWLQQKPGKAPKRLIYATSSLDSGVPSRFSGSRSGTDYTLTISSLQPEDFATYYCQQYSGYPLTFGQGTKVEIK
notes: Humanized 10H5; also called HuVHB9/HdVLB7; humanized 10H5 derivative
In turn, B4 displayed a Kd in [2] of 623 pM. In addition, in assay [3], the “AMP concentration in supernatant … 6 hours” value stood at 345 µM; the “AMP concentration in supernatant … 24 hours” value is 298 µM; the “AMP consumption, Calu-1 cells” value is under 20%; the “AMP consumption … 6 hr” value was under 10%. In [3], the “AMP consumption, MDA-MB-231 cells, 10 nM antibody, 24 h” value was under 50% and the “CFSE left-shift level of CD3/CD28-activated CD4+ T-cells with 400 µM AMP, 10 nM antibody” value came out at 83.5%. In assay [6], this molecule registered a koff of 6.36e-05 s⁻¹ and a kon of 102000 M⁻¹ s⁻¹.

B5: Oleclumab (antibody, V domains shown)
VH: EVQLLESGGGLVQPGGSLRLSCAASGFTFSSYAYSWVRQAPGKGLEWVSAISGSGGRTYYADSVKGRFTISRDNSKNTLYLQMNSLRAEDTAVYYCARLGYGRVDEWGRGTLVTVSS
VL: QSVLTQPPSASGTPGQRVTISCSGSLSNIGRNPVNWYQQLPGTAPKLLIYLDNLRLSGVPDRFSGSKSGTSASLAISGLQSEDEADYYCATWDDSHPGWTFGGGTKLTVL
In assay [7], B5 came in with an AMP concentration in supernatant by LC/MS, MDA-MB-231 cells, 400 µM AMP, 10 nM antibody, 6 hours of 324 µM; an AMP concentration in supernatant by LC/MS, MDA-MB-231 cells, 400 µM AMP, 10 nM antibody, 24 hours of 147 µM; an AMP consumption, Calu-1 cells, 10 nM antibody, 24 hrs of over 90%; an AMP consumption, MDA-MB-231 cells, 10 nM antibody, 6 hr of under 20%. Also, in assay [7], the AMP consumption, MDA-MB-231 cells, 10 nM antibody, 24 h is over 90% and the CFSE left-shift level of CD3/CD28-activated CD4+ T-cells with 400 µM AMP, 10 nM antibody, 3 days was 72.9%. The “EC50 (read off the curve)” value in assay [8] was about 100 pM. Further, the “EC50 (read off the curve)” value in [9] is about 100 pM. Also, the “EC50 (read off the curve)” value in assay [1] was about 100 pM.
